Test results from US20070117770A1, “Human ribosomal DNA (rDNA) and ribosomal RNA (rRNA) nucleic acids and uses thereof” (Cylene Pharmaceuticals, Inc., priority 2005, published 2007).

Tests used:
nucleolin [1] = target: T1, nucleolin (Homo sapiens, UniProt P19338); assay: Filter-binding assay of 32P-labeled quadruplexes and Nucleolin; conditions: for Kd: 0.2 nM 32P-labeled quadruplex, read-out: Kd, apparent dissociation constant of nucleolin protein and the nucleic acid ligand
T1 construct: without the N-terminal acidic stretches domain
T1 sequence (P19338 284-710 limits assumed): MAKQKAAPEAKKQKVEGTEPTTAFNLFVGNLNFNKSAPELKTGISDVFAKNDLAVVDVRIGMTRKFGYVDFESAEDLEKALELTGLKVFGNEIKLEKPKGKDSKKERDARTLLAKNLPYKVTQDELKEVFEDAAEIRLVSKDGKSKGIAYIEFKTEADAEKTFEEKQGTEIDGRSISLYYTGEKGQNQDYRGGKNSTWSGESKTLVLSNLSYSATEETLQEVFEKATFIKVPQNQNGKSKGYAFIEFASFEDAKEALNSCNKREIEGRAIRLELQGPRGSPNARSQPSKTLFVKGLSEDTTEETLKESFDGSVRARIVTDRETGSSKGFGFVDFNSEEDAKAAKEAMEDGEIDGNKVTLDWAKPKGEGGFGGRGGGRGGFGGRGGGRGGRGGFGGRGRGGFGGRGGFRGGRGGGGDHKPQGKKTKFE
Method: The assay also was conducted in a filter-binding format. […] The protein-quadruplex mixtures were incubated for 30 min at ambient temperature and filtered through mixed cellulose ester membrane filters (Millipore) with gentle suction. The filters were washed twice with […] of binding buffer, dried and OptiPhase ‘SuperMix’ scintillation cocktail (Perkin Elmer) was added to the wells. Radioactivity was assayed with MicroBeta scintillation counter (Perkin Elmer). Binding curves were constructed and apparent Kd's and Bmax's for the complexes were calculated using the GraphPad Prizm software program (GraphPad Software). In the following table, the nucleic acid ligand is designated in the first column using the nomenclature described herein; the second column provides the nucleotide sequence of the nucleic acid ligand; the third column is the conformation of the ligand as determined by circular dichroism (M is mixed, P is parallel, A is antiparallel, C is complex, SS is single-stranded and ND is not determined); the fourth column is the dissociation constant determined by the filter binding assay of nucleolin protein and the nucleic acid ligand; the fifth column is a Bmax constant determined by the filter binding assay, which is the percent of active nucleic acid ligand in each assay; and the sixth column presents the concentration of Compound A-1 required to dissociate half of the complexed nucleic acid ligand and nucleolin protein, as determined by the EMSA assay described above.

nucleolin [2] = target: T1, nucleolin; assay: EMSA, relative affinity of nucleic acid ligands for nucleolin; assay type: binding; set-up: key: +: weakest nucleolin affinity; ++++: strongest nucleolin affinity
Method: The following assays assessed effects of compounds on interactions between nucleolin and nucleic acid ligands capable of forming quadruplex (QP) and hairpin (HP) secondary structures. Nucleic acid ligands tested were a cMyc QP DNA having nucleotide sequence 5′-[…]-3′ (SEQ ID NO: 176) and a HP pre-rRNA region to which nucleolin binds, having the sequence 5′-[…]-3′ (SEQ ID NO: 177). In the assays, recombinant nucleolin (˜250 nM), which was fused to maltose binding protein and had the sequence under accession number NM_005381 without the N-terminal acidic stretches domain, was incubated with each of the two ^32P-labeled nucleic acid ligands (10 or 250 nM). Nucleolin and the nucleic acid ligand were incubated in the presence or absence of a test compound of Formula A-1, B-1, C-6 or C-7 in an incubation buffer (12.5 mM Tris, pH 7.6, 60 mM KCl, 1 mM MgCl2, 0.1 mM EDTA, 1 mM DTT, 5% glycerol, 0.1 mg/ml BSA) for 30 minutes at room temperature. Structures for A-1 and B-1 are shown above and structures for C-6 and C-7 are shown hereafter: [drawing 17] The resulting complexes were separated on a 6% DNA retardation gel using 0.5× TBE with 20 mM KCl as a running buffer (i.e., electrophoresis mobility shift assay (EMSA)).
The assay also was conducted using nucleic acid ligands derived from human ribosomal DNA. Sequences of these nucleic acids are shown in the preceding example. […]

Row | Molecule | Bmax, percent of active nucleic acid ligand (nucleolin [1]) | Kd (nucleolin [1]) | Affinity for Nucleolin (relative) (nucleolin [2])
1 | CGGAGGGCGCGCGGGTCGGGGCGGCGGCGGCGGCGGCGGTGGCGGCGGCGGCGGGGGCGGCGGG (nucleic acid, listed as Homo sapiens, listed as DNA, chemistry not given here) CGGAGGGCGCGCGGGTCGGGGCGGCGGCGGCGGCGGCGGTGGCGGCGGCGGCGGGGGCGGCGGG | 100% | 0.3 nM | ++++
2 | AGGGCGGCGGGCGGGGAAGAGGGCACAGACGGGCGAGGGCCGGGGACCGCGAGGGCAAGGGCACCCGGG (nucleic acid, listed as Homo sapiens, DNA, backbone and methylation of C not given here) AGGGCGGCGGGCGGGGAAGAGGGCACAGACGGGCGAGGGCCGGGGACCGCGAGGGCAAGGGCACCCGGG | 55% | 0.7 nM | –
